# Data published in the supplement of paper PMC10266784.
# B1: library; numbered along this chain (parent)
# chain: MAAAAAAAAEQQSSNGPVKKSMREKAVERRSVNKEHNSNFKAGYIPIDEDRLHKTGLRGRKGNLAICVIILLFILAVINLIITLVIWAVIRIGPNGCDSMEFHESGLLRFKQVSDMGVIHPLYKSTVGGRRNENLVITGNNQPIVFQQGTTKLSVENNKTSITSDIGMQFFDPRTQNILFSTDYETHEFHLPSGVKSLNVQKASTERITSNATSDLNIKVDGRAIVRGNEGVFIMGKTIEFHMGGNMELKAENSIILNGSVMVSTTRLPSSSSGDQLGSGDWVRYKLCMCADGTLFKVQVTSQNMGCQISDNPCGNTH
# Variants of: B1
# Experiment: SGCB cell-surface expression functional score (HA stain, bin4 vs bin1, normalised to synonymous) (log10 ratio); higher = more cell-surface SGCB (functional)
# Method in brief: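 Sorting and sequencing yield the functional score, defined as the log ratio of a variant's highest-bin frequency to its lowest-bin frequency, with the median taken over codons and replicate transductions. The libraries, codon-saturation sets of HA-tagged, YFP-fused human beta-sarcoglycan, went into HEK293 cells stably carrying alpha-, gamma- and delta-sarcoglycan by duplicate lentiviral transduction at MOI <0.1. Cells were stained on ice with Alexa Fluor 647 anti-HA, fixed and split into four 5% intensity bins, and synonymous variants were scaled per section to mean 0, SD 0.5.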
row,Variant,SGCB cell-surface expression functional score (log10)
1,MAAAAAAAAEQQSSNGPVKKSMREKAVERRSVNKEHNSNFKAGYIPIDEDRLHKTGLRGRKGNLAICVIILLFILAVINLIITLVIWAVIRIGPNGCDSMEFHESGLLRFKQVSDMGVIHPLYKSTVGGRRNENLVITGNNQPIVFQQGTTKLSVENNKTSITSDIGMQFFDPRTQNILFSTDYETHEFHLPSGVKSLNVQKASTERITSNATSDLNIKVDGRAIVRANEGVFIMGKTIEFHMGGNMELKAENSIILNGSVMVSTTRLPSSSSGDQLGSGDWVRYKLCMCADGTLFKVQVTSQNMGCQISDNPCGNTH [G228A],0.3
2,MAAAAAAAAEQQSSNGPVKKSMREKAVERRSVNKEHNSNFKAGYIPIDEDRLHKTGLRGRKGNLAICVIILLFILAVINLIITLVIWAVIRIGPNGCDSMEFHESGLLRFKQVSDMGVIHPLYKSTVGGRRNENLVITGNNQPIVFQQGTTKLSVENNKTSITSDIGMQFFDPRTQNILFSTDYETHEFHLPSGVKSLNVQKASTERITSNATSDLNIKVDGRAIVRFNEGVFIMGKTIEFHMGGNMELKAENSIILNGSVMVSTTRLPSSSSGDQLGSGDWVRYKLCMCADGTLFKVQVTSQNMGCQISDNPCGNTH [G228F],-0.64
3,MAAAAAAAAEQQSSNGPVKKSMREKAVERRSVNKEHNSNFKAGYIPIDEDRLHKTGLRGRKGNLAICVIILLFILAVINLIITLVIWAVIRIGPNGCDSMEFHESGLLRFKQVSDMGVIHPLYKSTVGGRRNENLVITGNNQPIVFQQGTTKLSVENNKTSITSDIGMQFFDPRTQNILFSTDYETHEFHLPSGVKSLNVQKASTERITSNATSDLNIKVDGRAIVRHNEGVFIMGKTIEFHMGGNMELKAENSIILNGSVMVSTTRLPSSSSGDQLGSGDWVRYKLCMCADGTLFKVQVTSQNMGCQISDNPCGNTH [G228H],-1.79
4,MAAAAAAAAEQQSSNGPVKKSMREKAVERRSVNKEHNSNFKAGYIPIDEDRLHKTGLRGRKGNLAICVIILLFILAVINLIITLVIWAVIRIGPNGCDSMEFHESGLLRFKQVSDMGVIHPLYKSTVGGRRNENLVITGNNQPIVFQQGTTKLSVENNKTSITSDIGMQFFDPRTQNILFSTDYETHEFHLPSGVKSLNVQKASTERITSNATSDLNIKVDGRAIVRCNEGVFIMGKTIEFHMGGNMELKAENSIILNGSVMVSTTRLPSSSSGDQLGSGDWVRYKLCMCADGTLFKVQVTSQNMGCQISDNPCGNTH [G228C],0.31
5,MAAAAAAAAEQQSSNGPVKKSMREKAVERRSVNKEHNSNFKAGYIPIDEDRLHKTGLRGRKGNLAICVIILLFILAVINLIITLVIWAVIRIGPNGCDSMEFHESGLLRFKQVSDMGVIHPLYKSTVGGRRNENLVITGNNQPIVFQQGTTKLSVENNKTSITSDIGMQFFDPRTQNILFSTDYETHEFHLPSGVKSLNVQKASTERITSNATSDLNIKVDGRAIVRDNEGVFIMGKTIEFHMGGNMELKAENSIILNGSVMVSTTRLPSSSSGDQLGSGDWVRYKLCMCADGTLFKVQVTSQNMGCQISDNPCGNTH [G228D],-1.5
6,MAAAAAAAAEQQSSNGPVKKSMREKAVERRSVNKEHNSNFKAGYIPIDEDRLHKTGLRGRKGNLAICVIILLFILAVINLIITLVIWAVIRIGPNGCDSMEFHESGLLRFKQVSDMGVIHPLYKSTVGGRRNENLVITGNNQPIVFQQGTTKLSVENNKTSITSDIGMQFFDPRTQNILFSTDYETHEFHLPSGVKSLNVQKASTERITSNATSDLNIKVDGRAIVRENEGVFIMGKTIEFHMGGNMELKAENSIILNGSVMVSTTRLPSSSSGDQLGSGDWVRYKLCMCADGTLFKVQVTSQNMGCQISDNPCGNTH [G228E],-0.84
7,MAAAAAAAAEQQSSNGPVKKSMREKAVERRSVNKEHNSNFKAGYIPIDEDRLHKTGLRGRKGNLAICVIILLFILAVINLIITLVIWAVIRIGPNGCDSMEFHESGLLRFKQVSDMGVIHPLYKSTVGGRRNENLVITGNNQPIVFQQGTTKLSVENNKTSITSDIGMQFFDPRTQNILFSTDYETHEFHLPSGVKSLNVQKASTERITSNATSDLNIKVDGRAIVVGNEGVFIMGKTIEFHMGGNMELKAENSIILNGSVMVSTTRLPSSSSGDQLGSGDWVRYKLCMCADGTLFKVQVTSQNMGCQISDNPCGNTH [R227V],0.81
8,MAAAAAAAAEQQSSNGPVKKSMREKAVERRSVNKEHNSNFKAGYIPIDEDRLHKTGLRGRKGNLAICVIILLFILAVINLIITLVIWAVIRIGPNGCDSMEFHESGLLRFKQVSDMGVIHPLYKSTVGGRRNENLVITGNNQPIVFQQGTTKLSVENNKTSITSDIGMQFFDPRTQNILFSTDYETHEFHLPSGVKSLNVQKASTERITSNATSDLNIKVDGRAIVTGNEGVFIMGKTIEFHMGGNMELKAENSIILNGSVMVSTTRLPSSSSGDQLGSGDWVRYKLCMCADGTLFKVQVTSQNMGCQISDNPCGNTH [R227T],0.88
9,MAAAAAAAAEQQSSNGPVKKSMREKAVERRSVNKEHNSNFKAGYIPIDEDRLHKTGLRGRKGNLAICVIILLFILAVINLIITLVIWAVIRIGPNGCDSMEFHESGLLRFKQVSDMGVIHPLYKSTVGGRRNENLVITGNNQPIVFQQGTTKLSVENNKTSITSDIGMQFFDPRTQNILFSTDYETHEFHLPSGVKSLNVQKASTERITSNATSDLNIKVDGRAIVWGNEGVFIMGKTIEFHMGGNMELKAENSIILNGSVMVSTTRLPSSSSGDQLGSGDWVRYKLCMCADGTLFKVQVTSQNMGCQISDNPCGNTH [R227W],0.59
10,MAAAAAAAAEQQSSNGPVKKSMREKAVERRSVNKEHNSNFKAGYIPIDEDRLHKTGLRGRKGNLAICVIILLFILAVINLIITLVIWAVIRIGPNGCDSMEFHESGLLRFKQVSDMGVIHPLYKSTVGGRRNENLVITGNNQPIVFQQGTTKLSVENNKTSITSDIGMQFFDPRTQNILFSTDYETHEFHLPSGVKSLNVQKASTERITSNATSDLNIKVDGRAIVYGNEGVFIMGKTIEFHMGGNMELKAENSIILNGSVMVSTTRLPSSSSGDQLGSGDWVRYKLCMCADGTLFKVQVTSQNMGCQISDNPCGNTH [R227Y],0.15
